The target in this assay is HIV-1 envelope glycoprotein gp120 (YU2) (HIV-1 (YU2)) (UniProt P35961). Briefly: SPR; BIAcore 3000, CM4 chip; gp120YU2 amine-coupled (514 RU for the Lg-CRD chip, 838 RU for the Lg-ECD chip), BSA control flow cell; Langerin injected at 20 µl/min; running buffer 150 mM NaCl, 25 mM Tris pH 7.8, 4 mM CaCl2, 0.005% P20; regeneration with 50 mM EDTA; 1:1 Langmuir fit for Lg-CRD, EC50 from titration for Lg-ECD.

Substance “Langerin carbohydrate-recognition domain (CRD) (domain or fragment)” had a Kd of 25 µM.

The record behind these values is paper PMC3511376.
